The text below walks through data of article PMC11206218 (Science Advances, 2020).

The target of this experiment is T1, S. cerevisiae Ggc1(C222S) with C-terminal His6-tag (S. cerevisiae, UniProt P38988 1-300, C222S).
T1 sequence (looked up): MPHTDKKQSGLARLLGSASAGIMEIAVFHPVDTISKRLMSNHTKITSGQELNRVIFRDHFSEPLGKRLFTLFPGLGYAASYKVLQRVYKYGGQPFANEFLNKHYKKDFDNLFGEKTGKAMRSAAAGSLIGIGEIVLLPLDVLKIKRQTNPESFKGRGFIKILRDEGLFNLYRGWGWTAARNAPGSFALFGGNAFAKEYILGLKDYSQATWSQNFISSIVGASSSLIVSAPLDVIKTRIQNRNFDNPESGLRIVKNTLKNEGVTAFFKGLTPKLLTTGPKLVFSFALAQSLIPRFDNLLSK
The experiment in a line: pull-down.

B1: TIM8·13(Tim8_(K30F,S36L)) mutant chaperone complex (complex, S. cerevisiae)
chain 1: MSSLSTSDLASLDDTSKKEIATFLEGENSFQKVQMLIHQFTNICFKKCVESVNDSNLSSQEEQCLSNCVNRFLDTNIRIVNGLQNTR
chain 2: GGLSSIFGGGAPSQQKEAATTAKTTPNPIAKELKNQIAQELAVANATELVNKISENCFEKCLTSPYATRNDACIDQCLAKYMRSWNVISKAYISRIQNASASGEI
On to B1, for which the binding result was “binds”.
